Measurements reported in patent US20040209257.

Tested on: T1, AcuI restriction endonuclease (recombinant, clone #288) V1M (Acinetobacter calcoaceticus SRW4)
T1 sequence: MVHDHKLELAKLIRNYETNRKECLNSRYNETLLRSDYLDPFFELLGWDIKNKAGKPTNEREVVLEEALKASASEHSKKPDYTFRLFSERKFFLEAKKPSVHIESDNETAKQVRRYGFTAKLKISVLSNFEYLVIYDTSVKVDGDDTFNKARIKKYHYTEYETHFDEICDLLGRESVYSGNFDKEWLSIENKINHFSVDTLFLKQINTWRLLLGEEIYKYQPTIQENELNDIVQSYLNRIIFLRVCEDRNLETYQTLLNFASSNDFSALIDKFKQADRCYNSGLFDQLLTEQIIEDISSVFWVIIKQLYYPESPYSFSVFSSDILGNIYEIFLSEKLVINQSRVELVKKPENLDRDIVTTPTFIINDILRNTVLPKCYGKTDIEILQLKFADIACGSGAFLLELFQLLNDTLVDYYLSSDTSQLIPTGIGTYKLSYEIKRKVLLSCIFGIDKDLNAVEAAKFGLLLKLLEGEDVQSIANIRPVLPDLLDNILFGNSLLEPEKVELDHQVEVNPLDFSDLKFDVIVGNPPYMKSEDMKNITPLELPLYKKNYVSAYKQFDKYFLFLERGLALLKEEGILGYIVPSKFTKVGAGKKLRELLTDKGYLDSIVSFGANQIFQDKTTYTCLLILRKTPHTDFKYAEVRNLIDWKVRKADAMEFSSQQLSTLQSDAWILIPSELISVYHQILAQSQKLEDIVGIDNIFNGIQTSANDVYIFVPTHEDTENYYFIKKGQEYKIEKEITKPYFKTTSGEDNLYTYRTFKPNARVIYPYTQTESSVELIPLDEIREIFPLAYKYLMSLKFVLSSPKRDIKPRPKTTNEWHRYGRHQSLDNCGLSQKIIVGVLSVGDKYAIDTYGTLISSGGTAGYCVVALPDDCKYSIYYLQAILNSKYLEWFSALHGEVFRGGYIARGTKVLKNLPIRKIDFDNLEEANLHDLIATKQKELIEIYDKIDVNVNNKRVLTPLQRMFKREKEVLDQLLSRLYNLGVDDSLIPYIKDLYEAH
Test: cleavage_in_vitro
Conditions: cell extract; lambda DNA substrate

Substance: lambda DNA
- activity (units per gram wet cells): 17400
